Test results reported in patent EP4692114A1, “CALCITONIN ANALOGUE, AND DERIVATIVE THEREOF AND USE THEREOF” (Hangzhou Sciwind Biosciences Co., Ltd., priority 2023, dated 2024).
*1 amine or outer side, *2 acyl side, *3 side chain or, on linkers, in order; H or OH if unused. The star is where a group is joined. C22 diacid = O=C(O)CCCCCCCCCCCCCCCCCCCCC(=O)*; C20 diacid = O=C(O)CCCCCCCCCCCCCCCCCCC(=O)*; γGlu = O=C(O)[C@H](CCC(=O)[*:2])N[*:1]; AEEA = NCCOCCOCC(=O)O

T1: human amylin receptor (AMY3) on CHO-K1/Gal5/AMY3 cells (human, UniProt P30988 25-474; O60896 24-148)
T1 sequence (looked up) 1: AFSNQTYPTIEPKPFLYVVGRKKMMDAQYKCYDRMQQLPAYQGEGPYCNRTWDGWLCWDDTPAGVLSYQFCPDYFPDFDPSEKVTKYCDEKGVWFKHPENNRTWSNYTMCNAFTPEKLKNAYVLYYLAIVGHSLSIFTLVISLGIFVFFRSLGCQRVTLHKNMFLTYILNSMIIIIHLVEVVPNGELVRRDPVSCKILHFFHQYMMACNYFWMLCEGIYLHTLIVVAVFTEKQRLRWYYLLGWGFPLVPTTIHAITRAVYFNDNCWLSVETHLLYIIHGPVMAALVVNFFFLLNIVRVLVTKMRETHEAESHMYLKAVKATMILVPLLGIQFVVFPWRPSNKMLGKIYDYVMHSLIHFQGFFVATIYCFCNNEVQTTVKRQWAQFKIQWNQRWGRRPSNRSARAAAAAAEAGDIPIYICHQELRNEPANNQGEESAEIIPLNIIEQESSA
T1 sequence (looked up) 2: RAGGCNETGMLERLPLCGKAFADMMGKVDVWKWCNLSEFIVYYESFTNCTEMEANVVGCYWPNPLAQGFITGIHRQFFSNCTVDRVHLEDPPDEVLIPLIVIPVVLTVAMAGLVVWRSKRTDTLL


Molecular target: T1, human amylin receptor (AMY3) on …
Assay: cell-based or functional assay

Binder	EC50/nM, CRE-luciferase in amylin receptor/CRE-luc CHO cells [nM]
{C22 diacid-γGlu}-ASQLSTAVLGRLSEELHRLQDYPRTDVGSGSP-NH2 (SMILES CC(C)C[C@H](NC(=O)[C@H](CCCNC(=N)N)NC(=O)CNC(=O)[C@H](CC(C)C)NC(=O)[C@@H](NC(=O)[C@H](C)NC(=O)[C@@H](NC(=O)[C@H](CO)NC(=O)[C@H](CC(C)C)NC(=O)[C@H](CCC(N)=O)NC(=O)[C@H](CO)NC(=O)[C@H](C)NC(=O)CC[C@H](NC(=O)CCCCCCCCCCCCCCCCCCCCC(=O)O)C(=O)O)[C@@H](C)O)C(C)C)C(=O)N[C@@H](CO)C(=O)N[C@@H](CCC(=O)O)C(=O)N[C@@H](CCC(=O)O)C(=O)N[C@@H](CC(C)C)C(=O)N[C@@H](Cc1c[nH]cn1)C(=O)N[C@@H](CCCNC(=N)N)C(=O)N[C@@H](CC(C)C)C(=O)N[C@@H](CCC(N)=O)C(=O)N[C@@H](CC(=O)O)C(=O)N[C@@H](Cc1ccc(O)cc1)C(=O)N1CCC[C@H]1C(=O)N[C@@H](CCCNC(=N)N)C(=O)N[C@H](C(=O)N[C@@H](CC(=O)O)C(=O)N[C@H](C(=O)NCC(=O)N[C@@H](CO)C(=O)NCC(=O)N[C@@H](CO)C(=O)N1CCC[C@H]1C(N)=O)C(C)C)[C@@H](C)O) [calcitonin derivative M65]	0.017
{C20 diacid-γGlu}-ASQLSTAVLGRLSQELHRLQDYPRTQSGSGSP-NH2 (SMILES CC(C)C[C@H](NC(=O)[C@H](CCCNC(=N)N)NC(=O)CNC(=O)[C@H](CC(C)C)NC(=O)[C@@H](NC(=O)[C@H](C)NC(=O)[C@@H](NC(=O)[C@H](CO)NC(=O)[C@H](CC(C)C)NC(=O)[C@H](CCC(N)=O)NC(=O)[C@H](CO)NC(=O)[C@H](C)NC(=O)CC[C@H](NC(=O)CCCCCCCCCCCCCCCCCCC(=O)O)C(=O)O)[C@@H](C)O)C(C)C)C(=O)N[C@@H](CO)C(=O)N[C@@H](CCC(N)=O)C(=O)N[C@@H](CCC(=O)O)C(=O)N[C@@H](CC(C)C)C(=O)N[C@@H](Cc1c[nH]cn1)C(=O)N[C@@H](CCCNC(=N)N)C(=O)N[C@@H](CC(C)C)C(=O)N[C@@H](CCC(N)=O)C(=O)N[C@@H](CC(=O)O)C(=O)N[C@@H](Cc1ccc(O)cc1)C(=O)N1CCC[C@H]1C(=O)N[C@@H](CCCNC(=N)N)C(=O)N[C@H](C(=O)N[C@@H](CCC(N)=O)C(=O)N[C@@H](CO)C(=O)NCC(=O)N[C@@H](CO)C(=O)NCC(=O)N[C@@H](CO)C(=O)N1CCC[C@H]1C(N)=O)[C@@H](C)O) [calcitonin derivative M17]	0.042
{C22 diacid-γGlu-AEEA-AEEA}-ASQLSTAVLGRLSEELHRLQDYPRTDVGSGSP-NH2 (SMILES CC(C)C[C@H](NC(=O)[C@H](CCCNC(=N)N)NC(=O)CNC(=O)[C@H](CC(C)C)NC(=O)[C@@H](NC(=O)[C@H](C)NC(=O)[C@@H](NC(=O)[C@H](CO)NC(=O)[C@H](CC(C)C)NC(=O)[C@H](CCC(N)=O)NC(=O)[C@H](CO)NC(=O)[C@H](C)NC(=O)COCCOCCNC(=O)COCCOCCNC(=O)CC[C@H](NC(=O)CCCCCCCCCCCCCCCCCCCCC(=O)O)C(=O)O)[C@@H](C)O)C(C)C)C(=O)N[C@@H](CO)C(=O)N[C@@H](CCC(=O)O)C(=O)N[C@@H](CCC(=O)O)C(=O)N[C@@H](CC(C)C)C(=O)N[C@@H](Cc1c[nH]cn1)C(=O)N[C@@H](CCCNC(=N)N)C(=O)N[C@@H](CC(C)C)C(=O)N[C@@H](CCC(N)=O)C(=O)N[C@@H](CC(=O)O)C(=O)N[C@@H](Cc1ccc(O)cc1)C(=O)N1CCC[C@H]1C(=O)N[C@@H](CCCNC(=N)N)C(=O)N[C@H](C(=O)N[C@@H](CC(=O)O)C(=O)N[C@H](C(=O)NCC(=O)N[C@@H](CO)C(=O)NCC(=O)N[C@@H](CO)C(=O)N1CCC[C@H]1C(N)=O)C(C)C)[C@@H](C)O) [calcitonin derivative M66]	0.017
{C20 diacid-γGlu}-ASELSTAVLGRLSEELHRLEDYPRTDVGSGSP-NH2 (SMILES CC(C)C[C@H](NC(=O)[C@H](CCCNC(=N)N)NC(=O)CNC(=O)[C@H](CC(C)C)NC(=O)[C@@H](NC(=O)[C@H](C)NC(=O)[C@@H](NC(=O)[C@H](CO)NC(=O)[C@H](CC(C)C)NC(=O)[C@H](CCC(=O)O)NC(=O)[C@H](CO)NC(=O)[C@H](C)NC(=O)CC[C@H](NC(=O)CCCCCCCCCCCCCCCCCCC(=O)O)C(=O)O)[C@@H](C)O)C(C)C)C(=O)N[C@@H](CO)C(=O)N[C@@H](CCC(=O)O)C(=O)N[C@@H](CCC(=O)O)C(=O)N[C@@H](CC(C)C)C(=O)N[C@@H](Cc1c[nH]cn1)C(=O)N[C@@H](CCCNC(=N)N)C(=O)N[C@@H](CC(C)C)C(=O)N[C@@H](CCC(=O)O)C(=O)N[C@@H](CC(=O)O)C(=O)N[C@@H](Cc1ccc(O)cc1)C(=O)N1CCC[C@H]1C(=O)N[C@@H](CCCNC(=N)N)C(=O)N[C@H](C(=O)N[C@@H](CC(=O)O)C(=O)N[C@H](C(=O)NCC(=O)N[C@@H](CO)C(=O)NCC(=O)N[C@@H](CO)C(=O)N1CCC[C@H]1C(N)=O)C(C)C)[C@@H](C)O) [calcitonin derivative M34]	0.058
{C20 diacid-γGlu}-RSQLSTDVLGRLSQELHRLQDYPRTDVGSGSP-NH2 (SMILES CC(C)C[C@H](NC(=O)[C@H](CCCNC(=N)N)NC(=O)CNC(=O)[C@H](CC(C)C)NC(=O)[C@@H](NC(=O)[C@H](CC(=O)O)NC(=O)[C@@H](NC(=O)[C@H](CO)NC(=O)[C@H](CC(C)C)NC(=O)[C@H](CCC(N)=O)NC(=O)[C@H](CO)NC(=O)[C@H](CCCNC(=N)N)NC(=O)CC[C@H](NC(=O)CCCCCCCCCCCCCCCCCCC(=O)O)C(=O)O)[C@@H](C)O)C(C)C)C(=O)N[C@@H](CO)C(=O)N[C@@H](CCC(N)=O)C(=O)N[C@@H](CCC(=O)O)C(=O)N[C@@H](CC(C)C)C(=O)N[C@@H](Cc1c[nH]cn1)C(=O)N[C@@H](CCCNC(=N)N)C(=O)N[C@@H](CC(C)C)C(=O)N[C@@H](CCC(N)=O)C(=O)N[C@@H](CC(=O)O)C(=O)N[C@@H](Cc1ccc(O)cc1)C(=O)N1CCC[C@H]1C(=O)N[C@@H](CCCNC(=N)N)C(=O)N[C@H](C(=O)N[C@@H](CC(=O)O)C(=O)N[C@H](C(=O)NCC(=O)N[C@@H](CO)C(=O)NCC(=O)N[C@@H](CO)C(=O)N1CCC[C@H]1C(N)=O)C(C)C)[C@@H](C)O) [calcitonin derivative M35]	0.037
{C20 diacid-γGlu}-ASQLSTAVLGRLSDELHRLQDLPRTDVGSGSP-NH2 (SMILES CC(C)C[C@H](NC(=O)[C@H](CCCNC(=N)N)NC(=O)CNC(=O)[C@H](CC(C)C)NC(=O)[C@@H](NC(=O)[C@H](C)NC(=O)[C@@H](NC(=O)[C@H](CO)NC(=O)[C@H](CC(C)C)NC(=O)[C@H](CCC(N)=O)NC(=O)[C@H](CO)NC(=O)[C@H](C)NC(=O)CC[C@H](NC(=O)CCCCCCCCCCCCCCCCCCC(=O)O)C(=O)O)[C@@H](C)O)C(C)C)C(=O)N[C@@H](CO)C(=O)N[C@@H](CC(=O)O)C(=O)N[C@@H](CCC(=O)O)C(=O)N[C@@H](CC(C)C)C(=O)N[C@@H](Cc1c[nH]cn1)C(=O)N[C@@H](CCCNC(=N)N)C(=O)N[C@@H](CC(C)C)C(=O)N[C@@H](CCC(N)=O)C(=O)N[C@@H](CC(=O)O)C(=O)N[C@@H](CC(C)C)C(=O)N1CCC[C@H]1C(=O)N[C@@H](CCCNC(=N)N)C(=O)N[C@H](C(=O)N[C@@H](CC(=O)O)C(=O)N[C@H](C(=O)NCC(=O)N[C@@H](CO)C(=O)NCC(=O)N[C@@H](CO)C(=O)N1CCC[C@H]1C(N)=O)C(C)C)[C@@H](C)O) [calcitonin derivative M50]	0.017
{C20 diacid-γGlu}-ASQLSTAVLGRLSQELHRLQDLPRTDVGSGSP-NH2 (SMILES CC(C)C[C@H](NC(=O)[C@H](CCCNC(=N)N)NC(=O)CNC(=O)[C@H](CC(C)C)NC(=O)[C@@H](NC(=O)[C@H](C)NC(=O)[C@@H](NC(=O)[C@H](CO)NC(=O)[C@H](CC(C)C)NC(=O)[C@H](CCC(N)=O)NC(=O)[C@H](CO)NC(=O)[C@H](C)NC(=O)CC[C@H](NC(=O)CCCCCCCCCCCCCCCCCCC(=O)O)C(=O)O)[C@@H](C)O)C(C)C)C(=O)N[C@@H](CO)C(=O)N[C@@H](CCC(N)=O)C(=O)N[C@@H](CCC(=O)O)C(=O)N[C@@H](CC(C)C)C(=O)N[C@@H](Cc1c[nH]cn1)C(=O)N[C@@H](CCCNC(=N)N)C(=O)N[C@@H](CC(C)C)C(=O)N[C@@H](CCC(N)=O)C(=O)N[C@@H](CC(=O)O)C(=O)N[C@@H](CC(C)C)C(=O)N1CCC[C@H]1C(=O)N[C@@H](CCCNC(=N)N)C(=O)N[C@H](C(=O)N[C@@H](CC(=O)O)C(=O)N[C@H](C(=O)NCC(=O)N[C@@H](CO)C(=O)NCC(=O)N[C@@H](CO)C(=O)N1CCC[C@H]1C(N)=O)C(C)C)[C@@H](C)O) [calcitonin derivative M18]	0.028
